The results in this text go back to the Human Domainome abundance scans (Beltran et al. 2025).

B1: Glucocorticoid receptor, residues 419 to 494; numbered along this chain, P04150 (parent)
chain: KLCLVCSDEASGCHYGVLTCGSCKVFFKRAVEGQHNYLCAGRNDCIIDKIRRKNCPACRYRKCLQAGMNLEARKTK

± gives the uncertainty stated by the source.

In the series the parent is B1. Kind of series: abundance fitness (aPCA) (normalised: wild type 0, dead -1); higher = more abundant; growth selection in yeast, the domain comes from the species named. The settings on record: Homo sapiens.
Consider KLCLVCSDEASGCHYGVLTCGSCKVFFKRAVEGQHNYLCAKRNDCIIDKIRRKNCPACRYRKCLQAGMNLEARKTK, for which the abundance fitness came to 0.011 ± 0.048. For KLCLVCSDEASGCHYGVLTCGSCKVFFKRAVEGQHNYLCAQRNDCIIDKIRRKNCPACRYRKCLQAGMNLEARKTK, the abundance fitness is -0.055 ± 0.048. On to KLCLVCSDEASGCHYGVLTCGSCKVFFKRAVEGQHDYLCAGRNDCIIDKIRRKNCPACRYRKCLQAGMNLEARKTK, for which the abundance fitness is -0.065 ± 0.092. As for KLCLVCSDEASGEHYGVLTCGSCKVFFKRAVEGQHNYLCAGRNDCIIDKIRRKNCPACRYRKCLQAGMNLEARKTK, the abundance fitness was 0.04 ± 0.04. Consider KLCLVCSDEASGHHYGVLTCGSCKVFFKRAVEGQHNYLCAGRNDCIIDKIRRKNCPACRYRKCLQAGMNLEARKTK, for which the abundance fitness is 0.112 ± 0.061.

Take KLCLVCSQEASGCHYGVLTCGSCKVFFKRAVEGQHNYLCAGRNDCIIDKIRRKNCPACRYRKCLQAGMNLEARKTK: the abundance fitness is -0.035 ± 0.051. Turning to KLCLVCSDEASGCHYGVLTCGSCKVFFKRAVEGQHNYLCAGRNDCIIDQIRRKNCPACRYRKCLQAGMNLEARKTK, the abundance fitness is -0.033 ± 0.047.

As to KLCLVCSDEASGCHYGVLTCGSCKVFFKRAVEGQHNYLCDGRNDCIIDKIRRKNCPACRYRKCLQAGMNLEARKTK, the abundance fitness is -0.136 ± 0.085. As for KLCRVCSDEASGCHYGVLTCGSCKVFFKRAVEGQHNYLCAGRNDCIIDKIRRKNCPACRYRKCLQAGMNLEARKTK, the figure is 0.017 ± 0.029; as for KLCLVCSDEASGCHYGVLTCGSCKVFFKRAVEGQHNYLCAGFNDCIIDKIRRKNCPACRYRKCLQAGMNLEARKTK, 0.077 ± 0.098. As for KLCLVCSDEASGCHYGVLTCGSCKVFFKRAVEGQHNYLCAGKNDCIIDKIRRKNCPACRYRKCLQAGMNLEARKTK, the figure is 0.106 ± 0.053; as for KLCLVCSDEASGCEYGVLTCGSCKVFFKRAVEGQHNYLCAGRNDCIIDKIRRKNCPACRYRKCLQAGMNLEARKTK, -0.102 ± 0.041; as for KLCLVCSDEASGCHYGVLTCGSCKVFFKRAVVGQHNYLCAGRNDCIIDKIRRKNCPACRYRKCLQAGMNLEARKTK, -0.051 ± 0.036. The value for KLCLVCSDEASGCHYGVLTCGSCKVFFKRAVEGQHNYLCAGRNDCIIDKIRRKNCPKCRYRKCLQAGMNLEARKTK was -0.06 ± 0.047; that for KLCLVCSDEASGCHYGVLTCGSCKVFFKRAVEGQHNYLCAGRNDCIIDKIRRKNCPACRYRKCLQAGMNLSARKTK was -0.016 ± 0.041.

Turning to KLCLVCSDEASGCHYGVLTCGSCKVFFKRAVEGQHNYLCAGRNDCIIDKIRRKNCPACRYRKCLQKGMNLEARKTK, the abundance fitness was found to be 0.024 ± 0.058.

Regarding KLCLVCSDEASGCHYGVLTCGSCKVFFKRAVEGQHNYLCAGRNDCIIDKIRRKNCPACRYRKCLQDGMNLEARKTK, the abundance fitness is -0.33 ± 0.082.

For KLCLVCSDEASGCHYGVLTCGSCKVFFKRAVEGQHNYLCAGRNDCIEDKIRRKNCPACRYRKCLQAGMNLEARKTK, the abundance fitness was -0.216 ± 0.046. With KLCLVCSDEASGCHYGVLTCGSCKVFFKRAVEGQHNYLCAGRNDCILDKIRRKNCPACRYRKCLQAGMNLEARKTK, the abundance fitness was -0.135 ± 0.034. The value for KLCLVCSDEASGCHYGVLTCGSCKVFFKRAVEGQHNYLCAGRNQCIIDKIRRKNCPACRYRKCLQAGMNLEARKTK was -0.026 ± 0.055. The value for KLCLVCSDEASGCHYGVLTCGSCKVFFKRAVEGQHNYLCAGRNCCIIDKIRRKNCPACRYRKCLQAGMNLEARKTK was 0.009 ± 0.089; that for KLCLVCSDEASGCHYGVLTCGSCKVFFKRAVEGQHNYLCAGRNDCIIKKIRRKNCPACRYRKCLQAGMNLEARKTK was -0.487 ± 0.092; that for KLCLVCSDEASGCHYGVLTCGSCKVFFKRAVEGQHNYLCAGRNDCIIDKIRRKNCPACRYRKCLQAGMILEARKTK was -0.089 ± 0.081.

Consider KLCLVCSDEASGCHYGVLTCGSCKVFFKRAVEGQHNYLCAGRNDCIIDKIRRKNCPACRYRKCLQAGMALEARKTK, for which the abundance fitness was 0.006 ± 0.042. As for KLCLVCSDEASGCHYGVLTCGSCKVFFKRAVEGQHNYLCAGRNDCIIDKIRRKNCPACRYRKCLQAGMGLEARKTK, the abundance fitness is -0.047 ± 0.039. The value for KLCLVCSDEASGCHYGVLTCGSCKVFFKRAVEGQHNYLCAGRNDCIIDKIRRKNCPACRYRKCLQAGMQLEARKTK was -0.071 ± 0.053; that for KLCLVCSDEASGCHYGVLTCGSCKVFFKRAVEGQHNYLCAGRNDRIIDKIRRKNCPACRYRKCLQAGMNLEARKTK was -0.778 ± 0.058; that for KLCLVCSDEASGCHYGVLTCGSCKVFFKRAVEGQHNYLCAGRNDCIIDKIRRKNCPACRYRKCLQAEMNLEARKTK was -0.228 ± 0.07. As for KLCLVCSDEASGCHYGVLTCGSCKVFFKRAVEGQHNYLCAGRNDCIIDKIRRKNCPACRYRKCLQAIMNLEARKTK, the figure is -0.415 ± 0.21. As to KLCLVCSDEASGCHYGVLTCGSCKVFFKRAVEGQHNYLCAGRNDCIIDKIRRKNCPACRYRKCLQAAMNLEARKTK, the abundance fitness is -0.542 ± 0.067. As for KLCLVCSDEASGCHYGVLTCGSCKVFFKRAVEGQHNYLCAGRNDCIIDKIRRKNCPACRYRKCLQACMNLEARKTK, the figure is -0.534 ± 0.17.

For KLCLVCSDEASGCHYGVLTCGSCKVFFKRAVEGQHNYLCAGRNDCIIDKIRRKNCPACRYRKCLQAGMNWEARKTK, the abundance fitness was -0.033 ± 0.04.

Take KLCLVCSDEASGCHYGVLTCGSCKVFFKRAVEGQDNYLCAGRNDCIIDKIRRKNCPACRYRKCLQAGMNLEARKTK: the abundance fitness came out at 0.005 ± 0.066. KLCLVCSDEASGCHYGVLTCGSCKVFFKRAVEGQHNYLCAGRNDCIIDKIRRKACPACRYRKCLQAGMNLEARKTK: the abundance fitness came to 0.05 ± 0.037.

For KLCLVCSDEASGCHYGVLTCGSCKVFFKRAVEGQHNYLCAGRNDCIIDKIRRKWCPACRYRKCLQAGMNLEARKTK, the abundance fitness is -0.064 ± 0.04. As for KLCLVCSDEASGCHYGVLTCGSCKVFFKRAVEGQHNYLCAGRNDCIIDKIRRKPCPACRYRKCLQAGMNLEARKTK, the figure is -0.25 ± 0.049.
